Target: SAMHD1 (T592A), constitutively active SAM domain and HD domain-containing protein 1 (UniProt Q9Y3Z3)
Assay: cell-based or functional assay

SAMHD1 (T592A), constitutively active SAM domain and HD domain-containing protein 1, sequence (Q9Y3Z3 whole entry T592A, the tested form may be a part): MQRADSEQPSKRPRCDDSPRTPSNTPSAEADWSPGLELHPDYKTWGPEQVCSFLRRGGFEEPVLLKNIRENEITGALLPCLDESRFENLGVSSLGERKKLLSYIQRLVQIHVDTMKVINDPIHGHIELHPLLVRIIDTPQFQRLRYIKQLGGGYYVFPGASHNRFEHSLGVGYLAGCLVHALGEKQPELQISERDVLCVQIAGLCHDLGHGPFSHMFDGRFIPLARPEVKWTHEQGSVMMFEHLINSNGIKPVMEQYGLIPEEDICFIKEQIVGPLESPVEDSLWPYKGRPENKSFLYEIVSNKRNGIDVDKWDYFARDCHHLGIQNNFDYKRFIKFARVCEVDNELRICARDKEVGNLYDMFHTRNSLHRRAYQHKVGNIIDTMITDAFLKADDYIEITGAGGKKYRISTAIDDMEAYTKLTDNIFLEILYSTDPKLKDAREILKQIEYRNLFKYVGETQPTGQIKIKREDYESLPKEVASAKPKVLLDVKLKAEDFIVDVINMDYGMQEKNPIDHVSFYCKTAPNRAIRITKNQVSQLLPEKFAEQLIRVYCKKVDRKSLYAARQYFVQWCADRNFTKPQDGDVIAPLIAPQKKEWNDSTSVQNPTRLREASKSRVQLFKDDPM

Row | Substance | editing efficiency, RW2I, mutation 2-nt from the nick, SAMHD1 (T592A) coexpressed [%] | editing efficiency, mutation 65-nt from the nick, relative to no SAMHD1^p- [%]
1 | VPX^RH2-1 (variant of VPX from HIV-2 clinical isolate RH2-1) (from UniProt P20881 1-112) | 64 | 
2 | VPX^ROD (Vpx from the ROD HIV-2 isolate) (from UniProt P06939 1-112) |  | 78

Source: patent US20210292753A1
